Data: the DeepSol protein solubility set

Test: soluble on expression in E. coli; label from the status in PepcDB or PDB records

Sequence | soluble on expression in E. coli
MKMKILGISFGTKNGNNDTMCKVALKGAKEAGAEVEFIQMSSINIKHCTGCCACVKTLLSGKGSMCVLKDDFEWLLDKMKDADGIVVSDPIFEEGASGLFHTIMDRFGPRADRGNNIIGTKVAEAIGGKIPDSRMLNDKVISFMGIGGSDWGTRVQCEHAMLALIPMWKVIDNAWFPWAKELVMDDTRLVQVHQIGLNIVEAAKDFEKASYQGEEGVCPHCHNRLFYLEPGTKKAICALCGIVGELDTISGKTIFSFPEEQLGHAHDTLPGKFIHGDDIKKMEGHYAEVRKTQEFKERKTSYNFIETLTKEKQAGLEHHHHHH | not soluble
MKNEKIVVLYGGDSPEREVSLKSGKAVLDSLISQGYDAVGVDASGKELVAKLLELKPDKCFVALHGEDGENGRVSALLEMLEIKHTSSSMKSSVITMDKMISKEILMHHRMPTPMAKFLTDKLVAEDEISFPVAVKPSSGGSSIATFKVKSIQELKHAYEEASKYGEVMIEQWVTGKEITVAIVNDEVYSSVWIEPQNEFYDYESKYSGKSIYHSPSGLCEQKELEVRQLAKKAYDLLGCSGHARVDFIYDDRGNFYIMEINSSPGMTDNSLSPKSAAAEGVDFDSFVKRIIEQAQ | not soluble
MKNENENEICFIAGVGDSNGYGWGIAKELSKRNVKVIFGVWPPVYNIFIKNLESGKFDKDMIINNDNSKRMQILDVLPLDAGFDNYDDIDEDTKNNKRYNNLKNYSIEEVANLIYNKYGKISMLVHSLANGREVQKSLLDTSRDGYLDAISKSSYSLISLCKHFCKFMNSGGSVVSLTYQASQKVVPGYGGGMSSAKAALESDTRVLAYYLGRKYNIRINTISAGPLKSRAATAINKFNNNQKNNMNSSGETDKQNYSFIDYAIDYSEKYAPLKKKLLSTDVGSVASFLLSKESSAVTGQTIYVDNGLNIMFGPDDLFQSSDS | soluble
MKNFEWNTSFSFAYMNNEVKHLYGEYENVLDANGNIVGSKEKDEYGKWWIGRPISAIWDYRVTGIWQPDEIEEAKKVGQLPGDPKVANNYTEDDIISSDGSRIPVYNDKDKEFLGQTTSPYILSMRNNFTILKNIDFSFNLYSCIGSKMKDTSYLNQVNASEIDYGLNQSIKEYWTPEHQSNTYARLNSKGPTGVNSPARYIDRSFIRLENISIGYTFPKSIVSRWGLSNLKVYGTIRNAALWTMSHWKLNDIETGGLAPRTYSLGINVTL | not soluble
MKNFHPTGNCPVRDVISRLGDKWSMLVLITLNANGTMRFSDIHKTIEDISQRMLTVTLRTLESDGLIERKIYAEVPPRVEYYLTDTGGTLIPHIEGLVGWALENMDTILEHRKSN | not soluble
MKNIAAAGVLERIRRLAPQASVPPYRTVEEWREWQLAEGRKRSEEINRQNHQLRVEKILNRSGIQPLHSKCSFANYQVQNDGQKYALSQAKSIADELMTGCTNFVFSGKTGTGKNHLAAAMGNRLMAKGRSVIIVTVSDVMSVLHDSYDNGKSGEKFLQELCSVDLLVLDEIGVQRETKNEQVVLHQIIDRRTASLCSVGMLTNLNHAAMSTLLGERIMDRMTMNGGRWVTFNWDSWRPNVSNMRVVK | soluble
MKNIHSIEFYTGSKEELLPDFEKDFPYIASRAELDKYIGGYVPWHWHRTVELFYMESGSIEYDTPGGKILFPAGSGGMINPNVLHMTKAISQREKNIQLLHIFDVSLLAGEQGSRIEQKYIAPVITAPQIEVIPLFPGNAEEERILKLLAASFRLSSDEFGYEIKLREALTEIWLMLFELSCSMREKKGEHNKSNDKIKLMMIYIHEHYREKISILELAAAAYLSERECYRVFHDCLHMTPVEYITTYRLQIACQMLAKGQEPITVISHECGLGSSSYFGKVFREYAYCSPTEYRKKWQNSDM | soluble
MKNKDSLHVSRRRFLAQLGGLTVAGMLGPSLLTPRSARAADAVAPGAATKEGILTGSHWGAIRATVVDGRFVAAKPFEQDKYPSKMIAGLPDHVHNAARIRYPMVRVDWMRKGHQSDTSQRGDNRFVRVSWDEALDLFYQELERVQKTYGPSALLTASGWQSTGMFHNASGMLARAIALHGNSVSTGGDYSTGAAQVILPRVVGSMEVYEQQTSWPLVLQNSKTIVLWGSDMVKNQQANWWCPDHDVYQYYEQLKEKVASGAISVISIDPVVTSTHDYLGRDKVKHIAINPQTDVPLQLALAHTLYSEKLYDKNFLDNYCVGFDQFLPYLLGEKDGQPKDAAWAEKLCGIDADTIRALARQMAGDRTQIIAGWCVQRMQHGEQWSWMVVVLAAMLGQIGLPGGGFGFGWHYNGAGTPGRKGIILSGFSGSTTVPPVHDSTDYKGYSSTIPIARFMDAILEPGKIINWNGKSVKLPPLKMCVFAGTNPFHRHQQINRIIEGWRKLETVIAIDNQWTSTCRFADIVLPATTQFERNDLDQFGNHSNRGIIAMKQVVSPQFEARNDFDIFRDLCRRFNREAAFTEGLDEMGWLKRIWQEGSQQGKGRGIHLPIFEVFWNQQEYIEFDHPQMFVRHQAFREDPDLEPLGTPSGLIEIYSKTIADMQYDDCQGHPMWFEKIERSHGGPGSQRWPLHLQSVHPDFRLHSQLCESETLRQQYAVGGKEPVFINPQDASARGIRNGDIVRVFNARGQVLAGAVVSDRYAPGVARIHEGAWYDPDKGGDLNALCKYGNPNVLTLDIGTSQLAQATSAHTTLVEIEKYTGPMDNVTAFNGPVEMVAQCEYVPASQGNPHD | not soluble
MKNKLFASALCAAALFTTNAMAKDQELYFYNWSEYIPSEVLEDFTKETGIKVIYSTYESNESMYAKLKTQGAGYDLVVPSTYFVSKMRKEGMLQEIDHSKLSHFKDLDPNYLNKPFDPGNKFSIPYIWGATGIGINTDMLDKKSLKNWGDLWDAKWAGQLMLMDDAREVFHIALSKLGYSPNTTNPKEIKAAYRELKKLMPNVLVFNSDFPANPYLAGEVSLGMLWNGSAYMARQEGAPIQIIWPEKGTIFWMDSISIPAGAKNIEAAHKMIDFLLRPENAAKIALEIGYPTPVKTAHDLLPKEFANDPSIYPPQSVIDNGEWQDEVGEASVLYDEYFQKLKVND | soluble
MKNQLIDRLTRYTTIDTQSDPKSTTTPSTEKQWDLLHLLEKELQQLGLPTDLDENGYLFATLESNIDVDVPTVGFLAHVDTSPDFNASNVKPQIIENYDGKPYKLGNTKRVLDPKVFPELNSLVGHTLMVTDGTSLLGADDKAGIVEIMEAICYLQEHPEIKHGTIRIGFTPDEEIGRGPHKFDVDRFNADFAYTMDGSQYGELQYESFNAAEAVITCHGVNVHPGSAKNAMVNAIRLGEQFDSLLPDSEVPERTEGYEGFYHLMNFEGTVEKATLQYIIRDHDKKQFELRKKRILEIRDDINAHFENYPVKVDISDQYFNMAEKILPLPHIIDIPKRVFAKLDIPANTEPIRGGTDGSQLSFMGLPTPNIFTGCGNFHGPYEYASIDVMEKAVQVIIGIVEDIAENH | not soluble
MKNVTRILTLSNGYHLWSHTSNLGGRTKLLCLHGGPGDTHEVFERFGPELADLDIEVTMYDQLGSWYSDTPNWDDDAIRQQYLTEDYYLSEVDEVRQQLGYKHCYLAGHSWGGMLAMTYAADHQDQLDGLIIISMIDNIADYLKRMHAIRTAEFSPAENAFMLAIEKRQQWNNPHYRQLITHLYHQYINRCHPSMMQHQLDIQAKPVYNHFQGDNEFVVYGVLDDWDFSDTLATIQVPTLLMFADHETMPLATAERMQQRMPNAKLVVTPDSGHNHMVDNPAVFFTYLRNYFSDQLGR | not soluble
MKPALHAIDATLPAPPTYTPAGNECALFEHAWKRRVPLLLKGPTGCGKTRFVAHMAARLGLPLFTVSCHDDLTAADLTGRYLLKGGETVWVDGPLTRAVRQGGICYLDEVVEARKDVAVVLHPLADDRRVLPLERTGEELQAPPHFMLVVSYNPGYQSLLKALKPSTRQRFAAIEFGFLAPEQEIAVVAAESGLPSERVAPLVALAGRLRKLKGHDLEEGVSTRLLVYCASLISEGLPVRDAVLAGLIEPLTDDADVKAALIEVAGVVIGLEHHHHHH | soluble
MKPKHLLCLSTVVAGLALFSTMTHSVLADDASNPDTILMNNNQANLQRDALVQKLDEGHQQLEAIKHEAKGTDIEATVNKAIDAVDHMKSSIRFNTETIYDFSSIGARVEALSDAIKAIVFSTTQLTHKVEKAHTDTGFAITKLVIRIIDPFASVDAIKAQVQEIKALEEKVINYPDLQPTDRATIYTKAKLNKAIWNTRLERDKKVLGIKSFDVYNRLNKAITHAVGVQLNPTTTVQQVDDEVIAVQNALETALKSLEHHHHHH | soluble
MKPKKLSLLLTILPMIIAATGCHSQQESKVDITPHCINLQADSLYRQAMTLMESSCDVDSTRKCIRFLDKALAIDSLNPDYYGMKAKLLSEMGELDSALYIQTLAMEKNAITGEYLFQLGLLQAAKDMHAEAHESFGKSKVFLQAVLKQYPDSLGAFILAEAANSLYENKDSLFMRNIDEIRKRFPERLLEIEMTRRVKPHSLVNQIRRIKIEKDYNIDFDMDSLVEATVNKDLEHHHHHH | not soluble
MKPKVLLAGGTGYIGKYLSEVIENDAELFTISKYPDNKKTDDVEMTWIQCDIFHYEQVVAAMNQIDIAVFFIDPTKNSAKITQSSARDLTLIAADNFGRAAAINQVKKVIYIPGSRYDNETIERLGAYGTPVETTNLVFKRSLVNVELQVSKYDDVRSTMKVVLPKGWTLKNVVNHFIAWMGYTKGTFVKTEKSHDQFKIYIKNKVRPLAVFKIEETADGIITLILLSGSLVKKYTVNQGKLEFRLIKESAVVYIHLYDYIPRLFWPIYYFIQAPMQKMMIHGFEVDCRIKDFQSRLKSGENMKYTK | not soluble
MKPLFGKVGVFGVGLLGGSVALGIKERFLAEEVHAYDQDPMALEKVLFLGVADRVHTEVGPWVGELDLGILAAPVGALAELGKALAPWAHPESLWTDVGSVKAKVVAALEGLLPHYLGGHPMAGSERAGVENAHAGLLQNAVWVLTPTERTSPRAREGVRGLVEALGAYPLEMPPGRHDELVARVSHLPYLLAVALNRMVAQSPHRDLLMFLAAGGFRDLTRVASGSPRMSRDMVVENKEALKEAIEELREVLLELEGLLDEPEGLLRAAEEAKRTRDSLPIVRRSLLPEMHDLVVQVPDRPGEIARIATALGEAGVNIKDIEVLTIREAAGALRLSFATREERERARRVLQEAGYRLP | soluble
MKPLLETIDTRFGTTNKHAFSRGNTLPYTGVPFGMNYFVPQTSDQDGSWFFDPHLPIFQGIRLTHQPSPWIGDYSWLLLTPVTSQLGGDSLFHRQSSYDIDKACFQPHYLKLFSLRYQIETQLTPTCYGASIRLNQKQGKALSLYLHAADELTVEQVDKRTLALRQEGKTETNKNSLTMFTLEHHHHHH | not soluble
MKPVKSGLDSISKYLRTKKEVGRRKIGLLVDGPNILRKEFDVNLEEIRDVLKDYGNIKIGRVFLNQYASDKLVEAIENHGLEPIICSSDVDVRLAVEGMELVYNPNIDTLAIVTRDADFKPLLNKANEHGKETIIFGVEPGFSTALKNSADYVILMGKNHMSGYDDEDEEGKPDASERGEYHEEYPEDEYGESMEKT | not soluble
MKQDVILVLDCGATNVRAIAVDRQGKIVARASTANASDIAAENSAWHQWSLDAILQRFADCCRSLSSALSECVVRGITVTTFGVDGALVDAQGKLLYPVISWKCPRTAAVMETIERFISPRQLQTLSGVGAFSFNTLYKLVWLKENHPRLLEQAHCWLFISSLINHRLTGEFTTDITMAGTSQLLDIHQRDFSPEILQATGLARRLFPRIVEAGAPIGTLQTDAARLLGLPAGVPVISAGHDTQFALFGAGAQQGEPVLSSGTWEILMVRSGQVDTSLLSQYPGSTCELDSQSGLYNPGMQWLASGVLEWVRKLLWTPETPWQTLIDEARAIPAGAEGVRMQCDLLACQNAGWQGVTLNTTRGHFYRAALEGLTAQLQRNLRTLEKIGHFNATELLLVGGGSRNALWNQIKANQLDIPIKVLDDAETTVAGAAMFGWYGVGEFSSPEQARAQVNYQYRYFWPQTEPEIIEGV | not soluble
